From the supplement of paper PMC9112550, “Optimization of the antimicrobial peptide Bac7 by deep mutational scanning” (BMC Biology, 2022)

Test system: Escherichia coli TOP10
Test: shrunken log2 fold change of peptide-encoding DNA abundance (4.5 h post-induction vs induction); higher = less antimicrobial activity (less host growth inhibition)
Settings: time post-induction: 4.5 h; library: site-saturation at positions 5, 18, 19, 20
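Note: peptides expressed intracellularly from a pBAD plasmid library in pooled LB shake-flask culture, induced with 0.3% L-arabinose, DNA abundance read by NGS, three biological replicates, DESeq2 with apeglm shrinkage.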

| Sequence | shrunken log2 fold change |
| --- | --- |
| RRIRGRPPRLPRPRPRPHWVPRP | 0.107 |
| RRIRQRPPRLPRPRPRPNWQPRP | -0.0119 |
| RRIRLRPPRLPRPRPRPWVRPRP | -0.00819 |
| RRIRMRPPRLPRPRPRPICAPRP | 0.486 |
| RRIRPRPPRLPRPRPRPQLSPRP | -0.485 |
| RRIRWRPPRLPRPRPRPHGSPRP | 0.173 |
| RRIRERPPRLPRPRPRPRWDPRP | 0.143 |
| RRIRWRPPRLPRPRPRPQYMPRP | -0.164 |
| RRIRCRPPRLPRPRPRPCPCPRP | -1.35 |
| RRIRTRPPRLPRPRPRPTMWPRP | -0.0407 |
| RRIRWRPPRLPRPRPRPHCMPRP | 0.0179 |
| RRIRKRPPRLPRPRPRPCYGPRP | -0.237 |
| RRIRGRPPRLPRPRPRPGECPRP | 0.959 |
| RRIRGRPPRLPRPRPRPQAYPRP | -0.0978 |
| RRIRMRPPRLPRPRPRPPEMPRP | 0.329 |
| RRIRSRPPRLPRPRPRPSHGPRP | -0.19 |
| RRIRVRPPRLPRPRPRPLRAPRP | 0.719 |
| RRIRARPPRLPRPRPRPYKMPRP | -0.821 |
| RRIRHRPPRLPRPRPRPNNPPRP | -0.874 |
| RRIRWRPPRLPRPRPRPLIAPRP | 0.273 |
| RRIRNRPPRLPRPRPRPKIQPRP | -0.367 |
| RRIRIRPPRLPRPRPRPLTWPRP | -0.585 |
| RRIRHRPPRLPRPRPRPWHSPRP | -0.22 |

| Sequence | shrunken log2 fold change |
| --- | --- |
| RRIRPRPPRLPRPRPRPYPRPRP | 0.0824 |
| RRIRHRPPRLPRPRPRPHEYPRP | -0.293 |
| RRIRDRPPRLPRPRPRPSCNPRP | -0.493 |
| RRIRQRPPRLPRPRPRPPSGPRP | 0.352 |
| RRIRMRPPRLPRPRPRPWWVPRP | -0.129 |
| RRIRARPPRLPRPRPRPNFRPRP | 0.376 |
| RRIRWRPPRLPRPRPRPCQRPRP | 1.03 |
| RRIRIRPPRLPRPRPRPSCHPRP | -0.243 |
| RRIRDRPPRLPRPRPRPTMFPRP | 0.0915 |
| RRIRSRPPRLPRPRPRPICKPRP | -0.494 |
| RRIRSRPPRLPRPRPRPEISPRP | -0.094 |
| RRIRSRPPRLPRPRPRPMQEPRP | 0.169 |
| RRIRHRPPRLPRPRPRPRANPRP | 0.177 |
| RRIRHRPPRLPRPRPRPSKRPRP | 0.0594 |
| RRIRVRPPRLPRPRPRPFFPPRP | -0.0751 |
| RRIRGRPPRLPRPRPRPRYQPRP | 0.615 |
| RRIRERPPRLPRPRPRPDIRPRP | -0.0427 |
| RRIRFRPPRLPRPRPRPERQPRP | -0.000475 |
| RRIRMRPPRLPRPRPRPFLIPRP | -0.34 |
| RRIRMRPPRLPRPRPRPTFSPRP | 0.386 |
| RRIRHRPPRLPRPRPRPKWTPRP | 0.0551 |
| RRIRMRPPRLPRPRPRPGACPRP | 0.73 |
| RRIRLRPPRLPRPRPRPFHQPRP | -1 |

| Sequence | shrunken log2 fold change |
| --- | --- |
| RRIRLRPPRLPRPRPRPCRGPRP | 0.157 |
| RRIRYRPPRLPRPRPRPFDRPRP | -1.29 |
| RRIRHRPPRLPRPRPRPGFDPRP | 0.105 |
| RRIRRRPPRLPRPRPRPGVTPRP | 0.303 |
| RRIRRRPPRLPRPRPRPNTIPRP | -0.372 |
| RRIRERPPRLPRPRPRPMVPPRP | -0.103 |
| RRIRRRPPRLPRPRPRPNTWPRP | 0.0852 |
| RRIRKRPPRLPRPRPRPMDDPRP | 0.123 |
| RRIRLRPPRLPRPRPRPWVEPRP | -0.186 |
| RRIRHRPPRLPRPRPRPDALPRP | 0.227 |
| RRIRLRPPRLPRPRPRPWYEPRP | 0.0242 |
| RRIRVRPPRLPRPRPRPQSWPRP | 0.256 |
| RRIRGRPPRLPRPRPRPRHWPRP | 0.439 |
| RRIRVRPPRLPRPRPRPIKCPRP | -0.633 |
| RRIRQRPPRLPRPRPRPMRLPRP | 0.0296 |
| RRIRFRPPRLPRPRPRPHNCPRP | -0.3 |
| RRIRRRPPRLPRPRPRPKQTPRP | 0.186 |
| RRIRTRPPRLPRPRPRPCGLPRP | 0.165 |
| RRIRVRPPRLPRPRPRPMQPPRP | -0.0152 |
| RRIRIRPPRLPRPRPRPSLAPRP | 0.0113 |
| RRIRHRPPRLPRPRPRPIAWPRP | 0.0843 |
| RRIRWRPPRLPRPRPRPFADPRP | 0.737 |
| RRIRERPPRLPRPRPRPSDVPRP | -0.182 |

| Sequence | shrunken log2 fold change |
| --- | --- |
| RRIRQRPPRLPRPRPRPPIHPRP | -0.0767 |
| RRIRMRPPRLPRPRPRPWDKPRP | -0.0134 |
| RRIRTRPPRLPRPRPRPRIEPRP | 0.453 |
| RRIRFRPPRLPRPRPRPYEEPRP | -0.221 |
| RRIRERPPRLPRPRPRPQYLPRP | -0.0574 |
| RRIRWRPPRLPRPRPRPDNAPRP | -0.000159 |
| RRIRTRPPRLPRPRPRPTKGPRP | -0.183 |
| RRIRARPPRLPRPRPRPPITPRP | 0.261 |
| RRIRARPPRLPRPRPRPKDIPRP | -0.00725 |
| RRIRYRPPRLPRPRPRPVPVPRP | -0.24 |
| RRIRCRPPRLPRPRPRPYAKPRP | -0.671 |
| RRIRPRPPRLPRPRPRPDKMPRP | 0.0748 |
| RRIRIRPPRLPRPRPRPECHPRP | 0.0255 |
| RRIRQRPPRLPRPRPRPDSSPRP | 0.00797 |
| RRIRWRPPRLPRPRPRPNGKPRP | 0.123 |
| RRIRSRPPRLPRPRPRPRENPRP | 0.468 |
| RRIRERPPRLPRPRPRPSKHPRP | -0.775 |
| RRIRNRPPRLPRPRPRPCWGPRP | -0.315 |
| RRIRHRPPRLPRPRPRPCRNPRP | -0.166 |
| RRIRNRPPRLPRPRPRPSPNPRP | -0.552 |
| RRIRTRPPRLPRPRPRPYTSPRP | -0.00661 |
| RRIRKRPPRLPRPRPRPYRIPRP | -0.0846 |
